We go through one molecule from PMC5161677.

The target of series [1] is T1, DnaA (Caulobacter crescentus, UniProt B8GWW5 1-490).
T1 sequence: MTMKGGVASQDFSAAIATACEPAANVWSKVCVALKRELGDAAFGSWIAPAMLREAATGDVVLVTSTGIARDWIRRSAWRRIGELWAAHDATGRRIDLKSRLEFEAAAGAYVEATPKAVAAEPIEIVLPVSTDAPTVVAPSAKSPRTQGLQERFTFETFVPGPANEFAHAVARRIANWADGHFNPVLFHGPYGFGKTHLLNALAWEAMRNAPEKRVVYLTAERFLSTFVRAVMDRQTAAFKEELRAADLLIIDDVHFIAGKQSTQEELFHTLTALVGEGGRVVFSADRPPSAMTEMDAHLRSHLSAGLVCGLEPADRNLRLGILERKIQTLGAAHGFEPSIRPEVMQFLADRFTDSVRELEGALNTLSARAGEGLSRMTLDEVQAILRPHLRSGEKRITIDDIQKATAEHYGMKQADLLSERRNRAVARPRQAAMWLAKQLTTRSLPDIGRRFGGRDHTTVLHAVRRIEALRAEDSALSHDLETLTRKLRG
In words: EMSA. For orientation: A gel shift assay detects complexes by their altered migration in electrophoresis.

The target of series [2] is T2, DnaA R357A (Caulobacter crescentus, UniProt B8GWW5 1-490, R357A).
T2 sequence: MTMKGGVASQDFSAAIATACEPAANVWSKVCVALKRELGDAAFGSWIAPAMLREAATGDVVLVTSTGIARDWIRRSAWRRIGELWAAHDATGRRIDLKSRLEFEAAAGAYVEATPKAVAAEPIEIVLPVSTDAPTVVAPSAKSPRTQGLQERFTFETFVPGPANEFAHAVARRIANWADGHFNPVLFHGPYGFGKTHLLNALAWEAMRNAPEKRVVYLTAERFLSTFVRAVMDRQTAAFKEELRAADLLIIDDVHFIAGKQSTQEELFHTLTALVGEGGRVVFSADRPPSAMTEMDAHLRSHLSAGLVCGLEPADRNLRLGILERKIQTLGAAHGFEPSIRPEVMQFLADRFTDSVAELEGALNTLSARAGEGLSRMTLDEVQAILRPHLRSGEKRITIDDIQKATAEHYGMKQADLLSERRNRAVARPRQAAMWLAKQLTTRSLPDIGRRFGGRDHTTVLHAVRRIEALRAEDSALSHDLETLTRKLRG
Kind of series: EMSA.

B1: G1 DnaA box dsDNA (dsDNA)
DNA 1: AACGGATGATCCACAGGAGAG
DNA 2: CTCTCCTGTGGATCATCCGTT
B1: the binding result in series [1] and in series [2] was “binds” in each case.
